From US10398755B2, “Clusterin pharmaceuticals and treatment methods using the same” (UNIVERSITY OF SOUTHERN CALIFORNIA, priority 2009, dated 2019)

Molecular target: T1, MMP-2 (Mus musculus, UniProt P33434)
T1 construct: purchased R&D Systems
Experiment: MMP inhibition assay (FRET peptide substrate), APMA-activated pro-MMP-2
Type: biochemical
Method: RFU, relative fluorescence unit, was obtained by considering the read out in PBS as 100%. Each reaction was performed in triplicate. Standard errors were depicted as a bar in each graph. Differences between values of PBS and CLU or SB-3CT reactions were statistically significant by Student t-test: *P=0.0004, **P=0.0001, +P=0.0003, and ++P=0.01. Gelatin zymography was performed with the samples pooled from each reaction set. Pro-MMPs, processed MMPs (MMP-9 or MMP-2), and C-terminal truncated, processed MMP-9 (MMP-9-ΔC) were indicated by arrows. (B) Dose-dependent inhibition of MMP-9 by CLU or SB-3CT was performed in the same condition. MMPs were mixed with CLD in TSCB buffer, 50 mM Tris-HCI, pH, 7.5, 150 mM NaCl, 5 mM CaCl2, 0.002% Brij35 (or otherwise indicated concentration) 30 min prior to substrate addition, and incubated for 3 h at RT in the presence or absence of 0.02 mM p-aminophenylmercuric acetate (APMA). MMP activity was measured using a 5-FAM/QXL520 fluorescence resonance energy transfer (FRET) peptide as a substrate (EXlEm=490 nm/520 nm) (AnaSpec, Fremont, Calif.), according to the manufacturer's protocol. Relative fluorescence unit (RFU) was obtained by subtracting the values of APMA- or enzyme-omitted reactions from those of test samples, and then considering the fluorescence unit of a PBS (vehicle) sample as 100%. Enzyme reactions were performed in black 96-well plate, containing combinations of 10 ng, 5 ng, 5 ng, 10 ng, 2.5 μg, 2.5 μg of MMP-2, MMP-7, catalytic domain of MMP-9, MMP-9, CCLU, and/or BSA, respectively, in 50 μl reaction volume. As MMP substrates (0.4 μM), 520 MMP FRET substrate […] (SEQ ID NO: 9), was used for MMP-2 and MMP-9, and 520 MMP FRET substrate XIV, […] […] Fluorescence was monitored using a Victor^3TM V multilabel counter (PerkinElmer). […] To determine whether MMP-9/CLU interaction affects the cleavage process of the propeptide of MMP-9 and/or interferes with enzymatic activity of the processed active enzyme, we performed an in vitro MMP-9 inhibition assay, by adopting FRET assay using a fluorescence-quenched peptide substrate (FIG. 3A). […] We incubated pro-MMP-9 with PBS, CLU, SB-3CT, or BSA, and a fluorescence peptide substrate in the presence or absence of APMA. […] We monitored the change in fluorescence value during the incubation of the reactions up to 3 h, which reflects the enzymatic activity of APMA-activated MMPs. […] At 3 h post incubation, the activity difference was read and reaction products were resolved by gelatin zymography. […] When the processed enzyme products were resolved on the gel, three bands were detected in the APMA-treated samples, pro-MMP-9, propeptide-cleaved MMP-9 (MMP-9), and MMP-9 with both propeptide and C-terminal region cleaved (MMP-9-ΔC), whereas only pro-MMP-9 was detected in APMA-omitted samples. […]

T1 sequence (P33434 110-662): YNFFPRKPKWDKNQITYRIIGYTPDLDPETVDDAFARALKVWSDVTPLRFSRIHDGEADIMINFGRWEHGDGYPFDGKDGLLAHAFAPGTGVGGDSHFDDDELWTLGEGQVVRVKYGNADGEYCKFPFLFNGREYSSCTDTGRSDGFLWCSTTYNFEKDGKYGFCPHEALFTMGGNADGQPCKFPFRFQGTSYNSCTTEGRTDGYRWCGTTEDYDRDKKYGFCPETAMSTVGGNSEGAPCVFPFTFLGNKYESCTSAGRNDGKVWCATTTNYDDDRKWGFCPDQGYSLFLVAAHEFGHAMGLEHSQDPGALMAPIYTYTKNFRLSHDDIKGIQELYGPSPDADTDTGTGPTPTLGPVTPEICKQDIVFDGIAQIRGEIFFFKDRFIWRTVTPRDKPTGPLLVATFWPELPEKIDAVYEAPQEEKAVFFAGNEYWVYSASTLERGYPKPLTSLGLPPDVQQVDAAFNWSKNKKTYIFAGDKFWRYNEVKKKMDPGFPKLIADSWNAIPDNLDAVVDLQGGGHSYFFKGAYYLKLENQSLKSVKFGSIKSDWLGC

effect on APMA-induced processing of MMP-2 (gel analysis) (APMA-treated reactions): processing of MMP-2 was not altered
inhibition of MMP-2 activity (CLU 50 μg/ml (0.63 μM), APMA, RT 3 h): 72%
B1: CLU: secreted disulfide-linked heterodimeric glycoprotein (70-80 KD); assays used recombinant mouse CLU with C-terminal (His)6 (protein, UniProt Q06890 22-448, looked up)
Clusterin: EQEVSDNELQELSTQGSRYINKEIQNAVQGVKHIKTLIEKTNAERKSLLNSLEEAKKKKEDALEDTRDSEMKLKAFPEVCNETMMALWEECKPCLKHTCMKFYARVCRSGSGLVGQQLEEFLNQSSPFYFWMNGDRIDSLLESDRQQSQVLDAMQDSFARASGIIDTLFQDRFFARELHDPHYFSPIGFPHKRPHFLYPKSRLVRSLMSPSHYGPPSFHNMFQPFFEMIHQAQQAMDVQLHSPAFQFPDVDFLREGEDDRTVCKEIRRNSTGCLKMKGQCEKCQEILSVDCSTNNPAQANLRQELNDSLQVAERLTEQYKELLQSFQSKMLNTSSLLEQLNDQFNWVSQLANLTQGEDKYYLRVSTVTTHSSDSEVPSRVTEVVVKLFDSDPITVVLPEEVSKDNPKFMDTVAEKALQEYRRKSRAE
modifications: C-terminal His6 tag
potency on MMP-2 compared with SB-3CT (CLU 50 μg/ml or 0.63 μM versus SB-3CT 1 μM): more potent inhibitor of both MMP-9 and MMP-2 than SB-3CT
MMP-2 inhibition at high detergent concentration (buffer with 0.04% Brij 35 or NP-40): inhibited by CLU in both buffers to the extent similar to that in the lower detergent concentration
